Reference: US20250388672A1 (Ablynx, published 2025)

B1: T017000016 (bispecific antibody)
chain: EVQLVESGGGLVQPGGSLRLSCTFSGGTFSSYTMGWFRQAPGKEREFVAEVRWGGVTTYSNSLKDRFSISEDSVKNAVYLQMNSLKPEDTAVYYCAAVRQMYMTVVPDYWGQGTLVTVSSGGGGSGGGGSGGGGSGGGGSGGGGSGGGGSGGGGSEVQLVESGGGSVQAGGSLRLSCAASGRTFSTNPMGWFRQVPGKERELIAAVRWADGNTFYADSVKGRFTISRDNAKKTVYLQMNSLKSEDTATYYCAAGRPWSAYHSPAEYVHWGQGTLVTVSSGAADYKDHDGDYKDHDIDYKDDDDKGAAHHHHHH
notes: Bispecific Nanobody construct with tags, expressed in Pichia; also called 20CD019C07-35GS-T0170033G03-FLAG3-HIS6; CD20xCD3 (cluster C)
B2: T017000101 (bispecific antibody)
chain: EVQLVESGGGLVQAGGSLRLSCAASGITFSINTMGWYRQAPGKQRELVALISSIGDTYYADSVKGRFTISRDNAKNTVYLQMNSLKPEDTAVYYCKRFRTAAQGTDYWGQGTLVTVSSGGGGSGGGGSGGGGSGGGGSGGGGSGGGGSGGGGSEVQLVESGGGPVQAGGSLRLSCAASGRTYRGYSMGWFRQAPGKEREFVAAIVWSGGNTYYEDSVKGRFTISRDNAKNTMYLQMTSLKPEDSATYYCAAKIRPYIFKIAGQYDYWGQGTLVTVSSGAADYKDHDGDYKDHDIDYKDDDDKGAAHHHHHH
B3: T017000040 (bispecific antibody)
chain: EVQLVESGGGLVQPGGSLRLSCAASGDIYKSFDMGWYRQAPGKQRDLVAVIGSRGNNRGRTNYADSVKGRFTISRDGTGNTVYLLMNKLRPEDTAIYYCNTAPLVAGRPWGRGTLVTVSSGGGGSGGGGSGGGGSGGGGSGGGGSGGGGSGGGGSEVQLVESGGGLVQPGGSLRLSCTFSGGTFSSYTMGWFRQAPGKEREFVAEVRWGGVTTYSNSLKDRFSISEDSVKNAVYLQMNSLKPEDTAVYYCAAVRQMYMTVVPDYWGQGTLVTVSSGAADYKDHDGDYKDHDIDYKDDDDKGAAHHHHHH
notes: Bispecific Nanobody construct with tags, expressed in Pichia; also called T0170060E11-35GS-20CD019C07-FLAG3-HIS6; CD3xCD20 (cluster B)
B4: T017000061 (bispecific antibody)
chain: EVQLVESGGGLVQPGGSLRLSCTFSGGTFSSYTMGWFRQAPGKEREFVAEVRWGGVTTYSNSLKDRFSISEDSVKNAVYLQMNSLKPEDTAVYYCAAVRQMYMTVVPDYWGQGTLVTVSSGGGGSGGGGSGGGGSGGGGSGGGGSGGGGSGGGGSEVQLVESGGGLVQGGGSLSLSCAASGRTFSSYAMAWFRQPPGKEREFVASISWSGENTNYRNSVKGRFTISRDNAKNTVYLQMNSLKPEDTAVYYCAAKIAKTYPDNWYWTKSNNYNYWGQGTLVTVSSGAADYKDHDGDYKDHDIDYKDDDDKGAAHHHHHH
B5: T017000056 (bispecific antibody)
chain: EVQLVESGGGLVQPGGSLRLSCTFSGGTFSSYTMGWFRQAPGKEREFVAEVRWGGVTTYSNSLKDRFSISEDSVKNAVYLQMNSLKPEDTAVYYCAAVRQMYMTVVPDYWGQGTLVTVSSGGGGSGGGGSGGGGSGGGGSGGGGSGGGGSGGGGSEVQLVESGGGAVQPGGSLRLSCAASGIRISRNMMGWFRQAPGKQRDLVARITPGGDTYYVDSVKGRFSISKDNAKNTVYLQMNSLKPEDTAVYYCNSYSTLGSWGQGTLVTVSSGAADYKDHDGDYKDHDIDYKDDDDKGAAHHHHHH
B6: T017000036 (bispecific antibody)
chain: EVQLVESGGGPVQAGGSLRLSCAASGRTYRGYSMGWFRQAPGKEREFVAAIVWSGGNTYYEDSVKGRFTISRDNAKNTMYLQMTSLKPEDSATYYCAAKIRPYIFKIAGQYDYWGQGTLVTVSSGGGGSGGGGSGGGGSGGGGSGGGGSGGGGSGGGGSEVQLVESGGGLVQPGGSLRLSCTFSGGTFSSYTMGWFRQAPGKEREFVAEVRWGGVTTYSNSLKDRFSISEDSVKNAVYLQMNSLKPEDTAVYYCAAVRQMYMTVVPDYWGQGTLVTVSSGAADYKDHDGDYKDHDIDYKDDDDKGAAHHHHHH
notes: Bispecific Nanobody construct with tags, expressed in Pichia; also called T0170117G03-35GS-20CD019C07-FLAG3-HIS6; CD3xCD20 (cluster A)
B7: T017000062 (bispecific antibody)
chain: EVQLVESGGGLVQPGGSLRLSCTFSGGTFSSYTMGWFRQAPGKEREFVAEVRWGGVTTYSNSLKDRFSISEDSVKNAVYLQMNSLKPEDTAVYYCAAVRQMYMTVVPDYWGQGTLVTVSSGGGGSGGGGSGGGGSGGGGSGGGGSGGGGSGGGGSEVQLVESGGGPVQAGGSLRLSCAASGRTYRGYSMGWFRQAPGKEREFVAAIVWSGGNTYYEDSVKGRFTISRDNAKNTMYLQMTSLKPEDSATYYCAAKIRPYIFKIAGQYDYWGQGTLVTVSSGAADYKDHDGDYKDHDIDYKDDDDKGAAHHHHHH
notes: Bispecific Nanobody construct with tags, expressed in Pichia; also called 20CD019C07-35GS-T0170117G03-FLAG3-HIS6; CD20xCD3 (cluster A)
B8: T017000100 (bispecific antibody)
chain: EVQLVESGGGPVQAGGSLRLSCAASGRTYRGYSMGWFRQAPGKEREFVAAIVWSGGNTYYEDSVKGRFTISRDNAKNTMYLQMTSLKPEDSATYYCAAKIRPYIFKIAGQYDYWGQGTLVTVSSGGGGSGGGGSGGGGSGGGGSGGGGSGGGGSGGGGSEVQLVESGGGLVQAGGSLRLSCAASGITFSINTMGWYRQAPGKQRELVALISSIGDTYYADSVKGRFTISRDNAKNTVYLQMNSLKPEDTAVYYCKRFRTAAQGTDYWGQGTLVTVSSGAADYKDHDGDYKDHDIDYKDDDDKGAAHHHHHH
B9: T017000057 (bispecific antibody)
chain: EVQLVESGGGLVQPGGSLRLSCTFSGGTFSSYTMGWFRQAPGKEREFVAEVRWGGVTTYSNSLKDRFSISEDSVKNAVYLQMNSLKPEDTAVYYCAAVRQMYMTVVPDYWGQGTLVTVSSGGGGSGGGGSGGGGSGGGGSGGGGSGGGGSGGGGSEVQLVESGGGLVQAGGSLRLSCAASGRSFNMNPLGWFRQSPGKEREFVAAHRWSDGNTYYVDSVKGRFTISRDNAKNTVYLQMNSLKSEDTAVYYCAAGRPWSAFRSPGEYVYWGQGTLVTVSSGAADYKDHDGDYKDHDIDYKDDDDKGAAHHHHHH
B10: T017000053 (bispecific antibody)
chain: EVQLVESGGGLVQPGGSLRLSCTFSGGTFSSYTMGWFRQAPGKEREFVAEVRWGGVTTYSNSLKDRFSISEDSVKNAVYLQMNSLKPEDTAVYYCAAVRQMYMTVVPDYWGQGTLVTVSSGGGGSGGGGSGGGGSGGGGSGGGGSGGGGSGGGGSEVQLVESGGGLVQPGGSLRLSCAASGDIYKSFDMGWYRQAPGKQRDLVAVIGSRGNNRGRTNYADSVKGRFTISRDGTGNTVYLLMNKLRPEDTAIYYCNTAPLVAGRPWGRGTLVTVSSGAADYKDHDGDYKDHDIDYKDDDDKGAAHHHHHH
notes: Bispecific Nanobody construct with tags, expressed in Pichia; also called 20CD019C07-35GS-T0170060E11-FLAG3-HIS6; CD20xCD3 (cluster B)
B11: T017000045 (bispecific antibody)
chain: EVQLVESGGGSVQAGGSLRLSCAASGRTFSTNPMGWFRQVPGKERELIAAVRWADGNTFYADSVKGRFTISRDNAKKTVYLQMNSLKSEDTATYYCAAGRPWSAYHSPAEYVHWGQGTLVTVSSGGGGSGGGGSGGGGSGGGGSGGGGSGGGGSGGGGSEVQLVESGGGLVQPGGSLRLSCTFSGGTFSSYTMGWFRQAPGKEREFVAEVRWGGVTTYSNSLKDRFSISEDSVKNAVYLQMNSLKPEDTAVYYCAAVRQMYMTVVPDYWGQGTLVTVSSGAADYKDHDGDYKDHDIDYKDDDDKGAAHHHHHH
B12: T017000021 (bispecific antibody)
chain: B11 chain
notes: Bispecific Nanobody construct with tags, expressed in Pichia; also called T0170033G03-35GS-20CD019C07-FLAG3-HIS6; CD3xCD20 (cluster C)

Assays:
human CD20 [1] = biological target: T1, human CD20 (human, UniProt P11836 1-297); assay: cell-based or functional assay
T1 sequence (looked up): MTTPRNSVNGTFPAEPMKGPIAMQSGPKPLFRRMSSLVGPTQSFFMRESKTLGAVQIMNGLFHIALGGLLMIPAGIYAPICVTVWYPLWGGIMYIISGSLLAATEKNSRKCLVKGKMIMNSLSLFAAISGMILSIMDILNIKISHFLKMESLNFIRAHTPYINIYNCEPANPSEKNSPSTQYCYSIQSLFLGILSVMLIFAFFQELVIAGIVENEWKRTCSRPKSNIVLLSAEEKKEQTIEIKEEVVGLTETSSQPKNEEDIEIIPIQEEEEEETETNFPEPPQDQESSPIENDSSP

human CD20 [2] = biological target: T1, human CD20; assay: flow cytometry on human CD20 positive Ramos cells
human CD20 [3] = biological target: T1, human CD20; assay: cell-based or functional assay; remark: listed apart in the source
human HER2 = human HER2 (human, UniProt P04626 23-1255); assay: cell-based or functional assay
[4] = biological target: T2, human TCR/CD3 complex on purified primary human T cells (human); assay: flow cytometry on primary human T cells
T2 construct: Natural complex on T cells isolated from buffy coats of healthy donors; also called hu T cells; purified primary T cells
T2 sequence (delta, as listed by the source limits assumed, chain 1 of 4): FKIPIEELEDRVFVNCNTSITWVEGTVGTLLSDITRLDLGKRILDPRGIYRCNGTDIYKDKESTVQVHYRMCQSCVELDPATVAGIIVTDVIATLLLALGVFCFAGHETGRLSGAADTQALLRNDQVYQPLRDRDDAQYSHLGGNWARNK
T2 sequence (gamma, as listed by the source limits assumed, chain 2 of 4): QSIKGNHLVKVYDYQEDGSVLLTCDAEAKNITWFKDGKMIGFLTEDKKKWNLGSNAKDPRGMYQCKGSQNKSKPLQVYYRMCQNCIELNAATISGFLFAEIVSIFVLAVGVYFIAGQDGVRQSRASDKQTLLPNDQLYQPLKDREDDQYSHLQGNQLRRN
T2 sequence (epsilon, as listed by the source limits assumed, chain 3 of 4): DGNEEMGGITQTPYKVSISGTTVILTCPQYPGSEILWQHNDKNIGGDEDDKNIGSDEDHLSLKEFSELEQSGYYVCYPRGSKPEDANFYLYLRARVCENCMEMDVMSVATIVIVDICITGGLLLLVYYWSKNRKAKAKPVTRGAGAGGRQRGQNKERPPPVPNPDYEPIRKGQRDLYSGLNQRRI
T2 sequence (zeta, as listed by the source limits assumed, chain 4 of 4): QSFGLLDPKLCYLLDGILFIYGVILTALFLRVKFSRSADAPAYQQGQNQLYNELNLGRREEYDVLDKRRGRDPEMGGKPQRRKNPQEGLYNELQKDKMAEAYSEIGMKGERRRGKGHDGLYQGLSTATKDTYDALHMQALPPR

human CD20 [5] = biological target: T1, human CD20; assay: cell-based or functional assay; remark: listed apart in the source
human CD20 [6] = biological target: T1, human CD20; assay: cell-based or functional assay; remark: listed apart in the source
human CD20 [7] = biological target: T1, human CD20; assay: cell-based or functional assay; remark: listed apart in the source

Binder	% lysis (% dead cells at 500 nM Nanobody minus no Nanobody control), Ramos killing assay, E:T 10:1 (human CD20 [1])	Average IC50 (M), flow cytometry based primary human T cell mediated Ramos killing assay, E:T 10:1 (human CD20 [1])	EC50 (human CD20 [2])	Average IC50 (M), xCELLigence based human T cell mediated CHO-K1 CD20 killing assay, E:T 30:1, 44 h (human CD20 [3])	further results
B1	4%	9.2e-09 M	1.5 nM	6.81e-12 M	–
B2	–	–	–	–	IC50 (M), xCELLigence based cytotoxicity (readout 18 h), MCF-7, E/T 15:1 (human HER2): 1.1e-10 M; IC50 (M), xCELLigence based cytotoxicity (readout 18 h), SKBR3, E/T 15:1 (human HER2): 2.6e-11 M
B3	29%	6.8e-09 M	32 nM	4.89e-10 M	–
B4	13%	2.9e-08 M	–	–	–
B5	4%	1.5e-08 M	–	–	–
B6	26%	5.5e-09 M	21 nM	1.04e-09 M	EC50 [4]: 35 nM
B7	22%	3.9e-09 M	1.9 nM	7.88e-10 M	EC50 [4]: 89 nM; IC50 (M), flow cytometry based T cell mediated Ramos killing assay, E:T 1 (human CD20 [5]): 2.5e-08 M; IC50 (M), flow cytometry based T cell mediated Ramos killing assay, E:T 2 (human CD20 [5]): 7.1e-09 M; IC50 (M), flow cytometry based T cell mediated Ramos killing assay, E:T 5 (human CD20 [5]): 8.7e-09 M; IC50 (M), flow cytometry based T cell mediated Ramos killing assay, E:T 10 (human CD20 [5]): 7.3e-09 M; EC50 (M) (title: IC50), T cell dependent B-cell (Ramos) killing assay (human CD20 [6]): 6.4e-10 M; EC50 (M) of IFN-γ secretion by human T cells (ELISA, 72 h) in the xCELLigence based CHO-K1 human CD20 killing assay (human CD20 [7]): 6.2e-10 M
B8	–	–	–	–	IC50 (M), xCELLigence based cytotoxicity (readout 18 h), MCF-7, E/T 15:1 (human HER2): 6.9e-11 M; IC50 (M), xCELLigence based cytotoxicity (readout 18 h), SKBR3, E/T 15:1 (human HER2): 9.5e-12 M
B9	3%	1.4e-09 M	–	–	–
B10	22%	7e-09 M	1.8 nM	2.81e-10 M	EC50 (M) (title: IC50), T cell dependent B-cell (Ramos) killing assay (human CD20 [6]): 1.8e-09 M; EC50 (M) of IFN-γ secretion by human T cells (ELISA, 72 h) in the xCELLigence based CHO-K1 human CD20 killing assay (human CD20 [7]): 9.1e-10 M
B11	0%	–	–	–	–
B12	–	–	4.7 nM	1.52e-10 M	–
